Experiments:
[1] = molecular target: T1, human tenascin-C rCd4-His-FBG (rat; human, UniProt P05540 207-392, limits assumed); experiment: HTRF competition; competitor d2-labelled B12 IgG
T1 construct: domain: domains 3 and 4; C-terminal FBG fusion; biotinylated in the ELISA and HTRF screens; also called Hu TNC; human TNC rCd4-His-FBG; not shown: 6His tag
T1 sequence (chain (part 1 of 2)): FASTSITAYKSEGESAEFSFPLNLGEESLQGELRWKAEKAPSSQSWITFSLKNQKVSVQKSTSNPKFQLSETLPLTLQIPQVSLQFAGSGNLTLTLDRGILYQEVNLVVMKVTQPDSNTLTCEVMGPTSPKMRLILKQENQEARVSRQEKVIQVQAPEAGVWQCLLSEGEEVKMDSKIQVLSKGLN
T1 sequence (chain (part 2 of 2)): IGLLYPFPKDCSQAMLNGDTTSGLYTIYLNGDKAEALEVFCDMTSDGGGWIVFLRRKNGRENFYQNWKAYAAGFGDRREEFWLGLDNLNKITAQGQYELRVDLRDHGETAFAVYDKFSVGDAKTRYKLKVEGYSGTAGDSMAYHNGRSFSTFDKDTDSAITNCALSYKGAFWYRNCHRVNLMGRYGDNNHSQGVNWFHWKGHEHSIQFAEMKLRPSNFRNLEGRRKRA
Protocol: All samples and reagents were prepared in assay buffer (50 mM NaPO₄, 0.1% BSA, 0.4 M KF, pH 7.0) at 4× the stated concentration. 5 μl of each reagent was subsequently added to low volume 384-well assay plates (Greiner, 784075) to give a final reaction volume of 20 μl. IgG antibodies were labelled using the d2 labelling kit (CisBio, 62D2DPEA) as directed by the manufacturer. Streptavidin europium cryptate (CisBio, 610SAKLA, Lot#25C) was used at a final concentration of 1.8 ng active moiety (SA) per 20 μl reaction as recommended by the manufacturer. Biotinylated rCd4-His-FBG was prepared using EZ-link Sulfo-NHS-LC-Biotin reagent (Thermo Scientific, 21327) the extent of biotinylation was quantified using biotinylation fluorescence quantitation kit (Thermo Scientific, 46610). Where appropriate, supernatants containing scFv (prepared as described above for ELISA assays) were added to the 384-well assay plate at a final dilution of 1/20 (i.e. 1/5 dilution in assay buffer followed by addition of 5 μl diluted sample to the 20 μl FRET assay). […] Samples were incubated for approximately 1 h at room temperature and the FRET signal was determined using a BMG Pherastar instrument: excitation=320 nm; emission=620 nm and 665 nm; integration start time=60 μs; integration time=500 μs; 100 flashes per well. For competition assays containing culture supernatant, biotinylated rCd4-His-FBG antigen was pre-incubated with streptavidin europium cryptate for 45 min prior to addition of reagents to the assay plate. All FRET signals are presented as ΔR, where R=(E665/E620×104) and ΔR=(Rsample−Rbackground fluorescence).

[2] = molecular target: T2, mouse tenascin-C rCd4-His-FBG (rat; mouse, UniProt P05540 207-392, limits assumed); experiment: anti-FLAG capture ELISA, scFv supernatant
T2 construct: domain: domains 3 and 4; C-terminal FBG fusion; biotinylated in the ELISA screen; also called Mu TNC; mouse TNC rCd4-His-FBG; not shown: 6His tag
T2 sequence (chain (part 1 of 2)): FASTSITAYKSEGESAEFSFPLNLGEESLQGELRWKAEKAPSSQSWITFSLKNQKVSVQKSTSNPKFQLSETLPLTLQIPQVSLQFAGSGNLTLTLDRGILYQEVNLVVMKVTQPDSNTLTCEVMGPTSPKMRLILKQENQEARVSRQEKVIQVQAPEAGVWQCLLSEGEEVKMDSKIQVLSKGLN
T2 sequence (chain (part 2 of 2)): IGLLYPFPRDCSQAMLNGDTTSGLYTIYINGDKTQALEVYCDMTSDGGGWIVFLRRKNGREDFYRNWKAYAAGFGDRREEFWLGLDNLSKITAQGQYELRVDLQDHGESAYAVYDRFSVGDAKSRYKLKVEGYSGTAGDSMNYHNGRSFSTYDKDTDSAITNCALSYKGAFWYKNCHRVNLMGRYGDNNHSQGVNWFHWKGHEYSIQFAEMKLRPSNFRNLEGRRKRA

B1: 161_01_F6 scFv (scFv, V domains shown, not shown: small tags and cut ends)
VH: EVRLVQSGAEVKKPGASVKVSCKVSGYTLTELSMHWVRQAPGKGLEWMGGFDPEDGETIYAQKFQGRVTMTEDTSTDTAYMELSSLRSEDTAVYYCATAQKENIANRHWGQGTLVTVSS
VL: DIQMTQSPASLPTSVGDRVTITCRASQYIQGFLNWYQQKPGKAPRLLIYAASTLQDGVPSRFSGSGYGTDFTLTISSLQPEDFATYYCQQSYSTPWTFGQGTKVEIK
notes: E. coli supernatant scFv; also called 160_01_F6
[1]
  % inhibition of FRET signal: ≥ 90%
[2]
  fold improvement in binding over parent: ≥ 10 fold

B2: 165_13_D1 scFv (scFv, V domains shown, not shown: small tags and cut ends)
VH: QVQLVESGGGLVQPGRSLRLSCAASGFTFDDYAMHWVRQAPGKGLEWVSGISGSGGSTYYADSVKGRFTISRDNAKNSLYLQMNSLRAEDTALYYCAKGTRGEGDTFDIWGQGTMVTVSS
VL: DIQMTQSPASLPTPVGDRVTITCRASQYIQGFLNWYQQKPGKAPKLLIYDASNLETGVPSRFSGSGSGTDFTLTISSLQPEDFATYYCQQSYSTPQTFGQGTKVDIK
notes: E. coli supernatant scFv
[1]
  % inhibition of HTRF signal: ≥ 91%
[2]
  fold improvement in binding over parent: ≥ 4 fold

B3: 165_13_B6 scFv (scFv, V domains shown, not shown: small tags and cut ends)
VH: QVQLVESGGGLVQPGRSLRLSCAASGFTFDDYAMHWVRQAPGKGLEWVSGISGSGGSTYYADSVKGRFTISRDNAKNSLYLQMNSLRAEDTALYYCAKGQKGEGDTFDIWGQGTMVTVSS
VL: DIQMTQSPASLPTPVGDRVTITCRASQYIQGFLNWYQQKPGKAPKLLIYDASNLETGVPSRFSGSGSGTDFTLTISSLQPEDFATYYCQQSYSTPQTFGQGTKVDIK
notes: E. coli supernatant scFv
[1]
  % inhibition of HTRF signal: ≥ 91%
[2]
  fold improvement in binding over parent: ≥ 4 fold

B4: 162_02_D3 scFv (scFv, V domains shown, not shown: small tags and cut ends)
VH: EVRLVQSGAEVKKPGASVKVSCKVSGYTLTELSMHWVRQAPGKGLEWMGGFDPEDGETIYAQKFQGRVTMTEDTSTDTAYMELSSLRSEDTAVYYCATAQIHPLGLTYWGQGTLVTVSS
VL: DIQMTQSPASLPTSVGDRVTITCRASQYIQGFLNWYQQKPGKAPRLLIYAASTLQDGVPSRFSGSGYGTDFTLTISSLQPEDFATYYCQQSYSTPWTFGQGTKVEIK
notes: E. coli supernatant scFv
[1]
  % inhibition of FRET signal: ≥ 90%
[2]
  fold improvement in binding over parent: ≥ 10 fold

B5: 162_02_C2 scFv (scFv, V domains shown, not shown: small tags and cut ends)
VH: EVRLVQSGAEVKKPGASVKVSCKVSGYTLTELSMHWVRQAPGKGLEWMGGFDPEDGETIYAQKFQGRVTMTEDTSTDTAYMELSSLRSEDTAVYYCATAQKETYALTYWGQGTLVTVSS
VL: DIQMTQSPASLPTSVGDRVTITCRASQYIQGFLNWYQQKPGKAPRLLIYAASTLQDGVPSRFSGSGYGTDFTLTISSLQPEDFATYYCMHHYRAPWTFGQGTKVEIK
notes: E. coli supernatant scFv
[1]
  % inhibition of FRET signal: ≥ 83%
[2]
  fold improvement in binding over parent: ≥ 10 fold

B6: 162_02_H5 scFv (scFv, V domains shown, not shown: small tags and cut ends)
VH: EVRLVQSGAEVKKPGASVKVSCKVSGYTLTELSMHWVRQAPGKGLEWMGGFDPEDGETIYAQKFQGRVTMTEDTSTDTAYMELSSLRSEDTAVYYCATAQKETYALTYWGQGTLVTVSS
VL: DIQMTQSPASLPTSVGDRVTITCRASQYIQGFLNWYQQKPGKAPRLLIYAASTLQDGVPSRFSGSGYGTDFTLTISSLQPEDFATYYCQNQYTGPWTFGQGTKVEIK
notes: E. coli supernatant scFv
[1]
  % inhibition of FRET signal: ≥ 83%
[2]
  fold improvement in binding over parent: ≥ 10 fold

B7: 162_02_C1 scFv (scFv, V domains shown, not shown: small tags and cut ends)
VH: EVRLVQSGAEVKKPGASVKVSCKVSGYTLTELSMHWVRQAPGKGLEWMGGFDPEDGETIYAQKFQGRVTMTEDTSTDTAYMELSSLRSEDTAVYYCATAQKETYALTYWGQGTLVTVSS
VL: DIQMTQSPASLPTSVGDRVTITCRASQYIQGFLNWYQQKPGKAPRLLIYAASTLQDGVPSRFSGSGYGTDFTLTISSLQPEDFATYYCLHHYRAPWTFGQGTKVEIK
notes: E. coli supernatant scFv
[1]
  % inhibition of FRET signal: ≥ 83%
[2]
  fold improvement in binding over parent: ≥ 10 fold

B8: 165_13_B1 scFv (scFv, V domains shown, not shown: small tags and cut ends)
VH: QVQLVESGGGLVQPGRSLRLSCAASGFTFDDYAMHWVRQAPGKGLEWVSGISGSGGSTYYADSVKGRFTISRDNAKNSLYLQMNSLRAEDTALYYCAKVMSSMEDAFDIWGQGTMVTVSS
VL: DIQMTQSPASLPTPVGDRVTITCRASQYIQGFLNWYQQKPGKAPKLLIYDASNLETGVPSRFSGSGSGTDFTLTISSLQPEDFATYYCQQSYSTPQTFGQGTKVDIK
notes: E. coli supernatant scFv
[1]
  % inhibition of HTRF signal: ≥ 91%
[2]
  fold improvement in binding over parent: ≥ 4 fold

B9: 161_01_H10 scFv (scFv, V domains shown, not shown: small tags and cut ends)
VH: EVRLVQSGAEVKKPGASVKVSCKVSGYTLTELSMHWVRQAPGKGLEWMGGFDPEDGETIYAQKFQGRVTMTEDTSTDTAYMELSSLRSEDTAVYYCATAQPVWAPGTYWGQGTLVTVSS
VL: DIQMTQSPASLPTSVGDRVTITCRASQYIQGFLNWYQQKPGKAPRLLIYAASTLQDGVPSRFSGSGYGTDFTLTISSLQPEDFATYYCQQSYSTPWTFGQGTKVEIK
notes: E. coli supernatant scFv
[1]
  % inhibition of FRET signal: ≥ 90%
[2]
  fold improvement in binding over parent: ≥ 10 fold

B10: 163_02_D11 scFv (scFv, V domains shown)
VH: EVRLVQSGAEVKKPGASVKVSCKVSGYTLTELSMHWVRQAPGKGLEWMGGFDPEDGETIYAQKFQGRVTMTEDTSTDTAYMELSSLRSEDTAVYYCATAQKETYALTYWGQGTLVTVSS
VL: DIQMTQSPASLPTSVGDRVTITCRASQYIQGFLNWYQQKPGKAPRLLIYAASTLQDGVPSRFSGSGYGTDFTLTISSLQPEDFATYYCLHHYKSPWTFGQGTKVEIK
notes: E. coli supernatant scFv; not shown: scFv linker, domain order and the pSANG10 tags (FLAG/His)
[1]
  % inhibition of FRET signal: ≥ 83%
[2]
  fold improvement in binding over parent: ≥ 10 fold

B11: 162_02_F4 scFv (scFv, V domains shown, not shown: small tags and cut ends)
VH: EVRLVQSGAEVKKPGASVKVSCKVSGYTLTELSMHWVRQAPGKGLEWMGGFDPEDGETIYAQKFQGRVTMTEDTSTDTAYMELSSLRSEDTAVYYCATAQKETYALTYWGQGTLVTVSS
VL: DIQMTQSPASLPTSVGDRVTITCRASQYIQGFLNWYQQKPGKAPRLLIYAASTLQDGVPSRFSGSGYGTDFTLTISSLQPEDFATYYCMHHYRSPWTFGQGTKVEIK
notes: E. coli supernatant scFv
[1]
  % inhibition of FRET signal: ≥ 83%
[2]
  fold improvement in binding over parent: ≥ 10 fold

B12: 162_02_C6 scFv (scFv, V domains shown, not shown: small tags and cut ends)
VH: EVRLVQSGAEVKKPGASVKVSCKVSGYTLTELSMHWVRQAPGKGLEWMGGFDPEDGETIYAQKFQGRVTMTEDTSTDTAYMELSSLRSEDTAVYYCATAQKETYALTYWGQGTLVTVSS
VL: DIQMTQSPASLPTSVGDRVTITCRASQYIQGFLNWYQQKPGKAPRLLIYAASTLQDGVPSRFSGSGYGTDFTLTISSLQPEDFATYYCQNQYAGPWTFGQGTKVEIK
notes: E. coli supernatant scFv
[1]
  % inhibition of FRET signal: ≥ 83%
[2]
  fold improvement in binding over parent: ≥ 10 fold

B13: 163_02_A12 scFv (scFv, V domains shown)
VH: EVRLVQSGAEVKKPGASVKVSCKVSGYTLTELSMHWVRQAPGKGLEWMGGFDPEDGETIYAQKFQGRVTMTEDTSTDTAYMELSSLRSEDTAVYYCATAQKETYALTYWGQGTLVTVSS
VL: DIQMTQSPASLPTSVGDRVTITCRASQYIQGFLNWYQQKPGKAPRLLIYAASTLQDGVPSRFSGSGYGTDFTLTISSLQPEDFATYYCLHHYREPWTFGQGTKVEIK
notes: as for B10
[1]
  % inhibition of FRET signal: ≥ 83%
[2]
  fold improvement in binding over parent: ≥ 10 fold

— patent US20170306005A1 (NASCIENT, published 2017)
